In IntAct's records for PubMed 24530283:

Molecular target: fos_mouse Fos (UniProt P01101)
Sequence (P01101 whole entry): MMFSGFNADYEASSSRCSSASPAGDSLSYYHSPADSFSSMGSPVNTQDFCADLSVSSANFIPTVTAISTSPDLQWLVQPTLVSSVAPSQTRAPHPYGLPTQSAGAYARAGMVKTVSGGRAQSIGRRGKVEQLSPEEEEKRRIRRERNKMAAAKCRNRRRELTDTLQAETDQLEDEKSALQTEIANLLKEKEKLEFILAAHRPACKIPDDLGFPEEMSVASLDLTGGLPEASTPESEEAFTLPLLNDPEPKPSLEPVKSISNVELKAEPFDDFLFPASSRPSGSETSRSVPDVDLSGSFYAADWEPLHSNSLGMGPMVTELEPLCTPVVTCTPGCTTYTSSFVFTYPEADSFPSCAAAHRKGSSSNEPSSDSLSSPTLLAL

Sequence of Transcription factor MafB (Mus musculus), P54841 V277N (P54841 whole entry V277N): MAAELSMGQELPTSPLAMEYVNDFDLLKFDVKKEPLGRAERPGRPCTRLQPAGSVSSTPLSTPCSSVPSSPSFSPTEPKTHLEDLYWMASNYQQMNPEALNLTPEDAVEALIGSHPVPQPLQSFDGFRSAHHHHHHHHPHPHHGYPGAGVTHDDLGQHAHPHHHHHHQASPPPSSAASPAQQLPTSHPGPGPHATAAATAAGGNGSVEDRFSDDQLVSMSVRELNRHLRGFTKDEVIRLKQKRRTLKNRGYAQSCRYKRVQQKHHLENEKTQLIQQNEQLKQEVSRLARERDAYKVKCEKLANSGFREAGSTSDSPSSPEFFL
Sequence of Transcription factor MafB (Mus musculus), P54841 E269R (P54841 whole entry E269R): as the sequence (P54841 whole entry V277N) above, with E269R, N277V counted along it

effect of a mutation on the interaction	Substance
increasing interaction strength	Transcription factor MafB (Mus musculus), P54841 E269R
disrupting interaction strength	Transcription factor MafB (Mus musculus), P54841 V277N
